Measurements: patent US20250376539A1 (KIRA PHARMACEUTICALS SUZHOU, published 2025)
Several values for one entry are separate records, joined by “and”; a condition that tells them apart may be missing. Equal values may be shown once.

B1: anti-C2 antibody 3.2 (antibody, IgG4, V domains shown)
VH: EVQLLESGGGLVQPGGSLRLSCAASGFTFRHYAMSWVRQAPGKGLEWVSLISGSGASTFYADSVKGRFTISRDNSENMLYLQMNSLRAEDTAVYYCAKDSLAVAGSEYFQHWGQGTLVTVSS
VL: SYVLTQAPSVSVAPGQTARITCGGNYFGGKSVHWYQQRPGQAPVLVVYDDSDRPSGIPERFSGSKSGNTATLAISRVEAGDEAAYYCQVYDTSSDHWVFGGGTKLTVL
notes: Recombinant; also called WT; "WT" 3.2
B2: anti-C2 antibody 69.44 (antibody, IgG4, V domains shown)
VH: QVQLVQSGAEVKKPGASVKVSCKASGYSFTTYYMYWVRQAPGQGLEWMGIITPSGGSTTYAQKFQDRVTMTRDASTTTVYMELSSLRSEDTAVYYCARGYEGSYGFDHWGQGTLVTVSS
VL: SYELTQPPSVSLSPGQTASITCSGDKLGNKYTCWYQQKPGQSPVLVIYQDNKRPSGIPERFSGSNSGNTATLTISGTQAMDEADYYCQTWDSSTAVFGGGTKLTVL
notes: Recombinant

What was measured:
[1] = target: T1, recombinant cynomolgus (cyno) complement C2 (XP_005553508.1), C-terminal 6His-tag, made in house (CHO cell … (cynomolgus monkey (Macaca fascicularis), UniProt P06681 21-752 (human entry))); test: binding kinetics (BLI presumed)
T1 construct: also called cyno C2; Cyno C2
T1 chain: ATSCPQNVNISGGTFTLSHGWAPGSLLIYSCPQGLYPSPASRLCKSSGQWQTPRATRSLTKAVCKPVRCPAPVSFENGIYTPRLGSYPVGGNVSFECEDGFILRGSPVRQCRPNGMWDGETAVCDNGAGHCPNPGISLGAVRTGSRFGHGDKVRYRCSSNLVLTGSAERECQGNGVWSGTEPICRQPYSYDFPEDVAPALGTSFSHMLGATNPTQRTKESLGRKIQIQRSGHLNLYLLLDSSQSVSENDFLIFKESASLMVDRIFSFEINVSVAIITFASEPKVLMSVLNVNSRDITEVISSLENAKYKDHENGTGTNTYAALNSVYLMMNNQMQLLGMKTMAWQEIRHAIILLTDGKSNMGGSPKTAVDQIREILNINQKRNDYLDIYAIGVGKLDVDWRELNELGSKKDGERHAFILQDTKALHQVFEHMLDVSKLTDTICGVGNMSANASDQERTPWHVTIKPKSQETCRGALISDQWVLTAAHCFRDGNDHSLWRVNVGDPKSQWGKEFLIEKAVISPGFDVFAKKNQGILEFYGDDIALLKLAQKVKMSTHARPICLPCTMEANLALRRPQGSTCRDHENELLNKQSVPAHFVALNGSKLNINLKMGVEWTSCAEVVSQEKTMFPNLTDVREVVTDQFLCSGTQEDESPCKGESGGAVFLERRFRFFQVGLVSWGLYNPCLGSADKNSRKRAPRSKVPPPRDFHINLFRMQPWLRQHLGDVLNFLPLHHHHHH

[2] = target: T2, human complement C2 in normal human serum (human, UniProt P06681 21-752); test: cell-based or functional assay
T2 sequence: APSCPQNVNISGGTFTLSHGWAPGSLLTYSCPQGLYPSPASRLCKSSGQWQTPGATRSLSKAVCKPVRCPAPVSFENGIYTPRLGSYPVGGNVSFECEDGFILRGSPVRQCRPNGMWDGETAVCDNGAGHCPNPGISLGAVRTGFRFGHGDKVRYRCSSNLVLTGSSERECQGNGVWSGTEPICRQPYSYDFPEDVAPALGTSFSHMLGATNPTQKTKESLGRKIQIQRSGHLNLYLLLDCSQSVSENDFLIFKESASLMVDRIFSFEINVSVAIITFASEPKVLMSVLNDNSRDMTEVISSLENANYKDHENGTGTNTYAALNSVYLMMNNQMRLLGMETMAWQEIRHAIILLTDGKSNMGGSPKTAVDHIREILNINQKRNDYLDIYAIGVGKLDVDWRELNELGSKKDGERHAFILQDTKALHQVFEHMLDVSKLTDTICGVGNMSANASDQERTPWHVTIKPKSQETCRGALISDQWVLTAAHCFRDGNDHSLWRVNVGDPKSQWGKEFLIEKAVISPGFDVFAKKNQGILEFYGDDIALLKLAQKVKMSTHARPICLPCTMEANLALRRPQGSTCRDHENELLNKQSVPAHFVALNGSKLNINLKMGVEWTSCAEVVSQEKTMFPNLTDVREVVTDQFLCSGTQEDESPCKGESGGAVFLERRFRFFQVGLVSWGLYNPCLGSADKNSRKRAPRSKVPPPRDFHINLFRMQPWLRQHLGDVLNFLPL

[3] = target: T1, recombinant cynomolgus (cyno) …; test: BLI (Gator), antibody on probe; 600 s association at pH 7.4, 600 s dissociation at pH 7.4
Procedure: (§1) The histidine mutant constructs in Table 4 were tested for their pH-dependent dissociation from human C2. Probe-immobilized anti-C2 antibodies were incubated with C2 at pH 7.4 for 600s, followed by a 600s dissociation period in K Buffer at pH 7.4 or pH 5.8. The data were processed and analyzed by the Gator evaluation software.
(§2) Non-fusion mAb were used for comparison.

[4] = target: T1, recombinant cynomolgus (cyno) …; test: BLI (Gator); ratio of dissociation at pH 5.8 to pH 7.4
Procedure: as §1, §2

[5] = target: T3, recombinant human complement C2 (NP_000054.2), C-terminal 6His-tag, made in house (CHO cell expression) (human, UniProt P06681 21-752); test: as above
T3 construct: a linker before the tag is not described; also called human C2; Human C2
T3 sequence: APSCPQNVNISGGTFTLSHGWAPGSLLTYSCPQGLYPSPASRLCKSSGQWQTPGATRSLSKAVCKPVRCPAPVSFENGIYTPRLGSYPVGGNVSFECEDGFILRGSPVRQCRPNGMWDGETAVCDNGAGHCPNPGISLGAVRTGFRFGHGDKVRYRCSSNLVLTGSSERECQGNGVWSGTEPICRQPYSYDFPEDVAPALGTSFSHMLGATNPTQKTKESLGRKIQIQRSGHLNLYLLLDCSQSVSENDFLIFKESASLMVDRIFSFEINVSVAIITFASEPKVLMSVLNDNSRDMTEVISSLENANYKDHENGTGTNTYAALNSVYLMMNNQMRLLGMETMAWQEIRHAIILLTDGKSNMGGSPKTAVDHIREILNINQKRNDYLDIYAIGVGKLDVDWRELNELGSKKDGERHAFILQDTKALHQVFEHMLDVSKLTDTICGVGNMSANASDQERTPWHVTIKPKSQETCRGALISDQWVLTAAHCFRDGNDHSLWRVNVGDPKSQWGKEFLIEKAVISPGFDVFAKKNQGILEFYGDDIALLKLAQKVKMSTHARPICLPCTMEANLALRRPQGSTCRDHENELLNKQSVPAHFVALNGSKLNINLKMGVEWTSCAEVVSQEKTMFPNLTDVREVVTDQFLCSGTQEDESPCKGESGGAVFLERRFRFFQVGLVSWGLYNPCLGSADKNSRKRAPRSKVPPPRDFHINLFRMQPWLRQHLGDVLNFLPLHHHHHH
Procedure: as §1, §2

[6] = target: T3, recombinant human complement C2 …; test: binding kinetics, neutral pH (BLI presumed)

Binder | Kd [1] [nM] | koff [1] [s⁻¹] | kon [1] [M⁻¹ s⁻¹] | IC50, inhibition of sheep RBC lysis, 5% serum [2] [nM] | Dissociation (%) pH 7.4 [3] [%] | Fold dissociation pH 5.8/pH 7.4 [4] [fold] | Fold dissociation pH 5.8/pH 7.4 [5] [fold] | Kd [6] | koff [6] | kon [6]
B1 | 0.126 | 5.82e-05 | 461000 | 2.9 | 5.37 | 2.7 | 1.97 | 0.198 nM and 0.0984 nM | 6.12e-05 s⁻¹ and 3.73e-05 s⁻¹ | 308000 M⁻¹ s⁻¹ and 379000 M⁻¹ s⁻¹
B2 | 0.304 | 5.89e-05 | 194000 | 2.8 | 4.81 | 1.5 | 0.78 | 0.296 nM | 5.85e-05 s⁻¹ | 197000 M⁻¹ s⁻¹
